The record followed here is the Immune Epitope Database (IEDB).

The pKd is the Kd on a negative log10 scale, so that one unit is a factor of ten. For orientation: pIC50 means the negative decadic logarithm of the IC50, by convention in mol/L. The low end stands for a high IC50, the high end for a low IC50.

pIC50, pKd: −log10 of the molar value. Bounds are passed on as bounds.

For assay [1], the target named is HLA-A*29:02. Briefly: IEDB peptide-MHC binding, purified MHC/competitive/radioactivity; filed as Kd, often an IC50 or EC50 that approximates it; ≥ and ≤ were set here for values at or beyond the usual limits of such assays.
The target of assay [2] is HLA-A*26:01. The description is as above.
In assay [3] the target is HLA-A*01:01. The description is as above.
For assay [4], the target named is HLA-A*30:02. The description is as above.
Assay [5] has as its target HLA-A*23:01. Described as above.
In assay [6] the target is HLA-A*24:02. The description is as above.
The target of assay [7] is HLA-A*32:01. Described as above. The conditions noted are these: source organism: Vaccinia virus WR.
Assay [8] deals with HLA-B*08:01. The assay is described as above.
The target in assay [9] is HLA-A*24:02. Briefly: IEDB peptide-MHC binding, purified MHC/competitive/fluorescence; ≥ and ≤ were set here for values at or beyond the usual limits of such assays.
The target of assay [10] is HLA-A*68:02. Briefly: IEDB peptide-MHC binding, purified MHC/competitive/radioactivity; filed as Kd, often an IC50 or EC50 that approximates it; ≥ and ≤ were set here for values at or beyond the usual limits of such assays.
For assay [11], the target named is HLA-B*39:01. Briefly: IEDB peptide-MHC binding, purified MHC/competitive/fluorescence; filed as Kd, often an IC50 or EC50 that approximates it; ≥ and ≤ were set here for values at or beyond the usual limits of such assays. The conditions noted are these: source organism: Bacillus anthracis str. A0488.
Assay [12] addresses HLA-A*02:01. Briefly: IEDB peptide-MHC binding, purified MHC/competitive/fluorescence; ≥ and ≤ were set here for values at or beyond the usual limits of such assays.
In assay [13] the target is HLA-B*40:01. Briefly: IEDB peptide-MHC binding, purified MHC/direct/fluorescence; filed as Kd, often an IC50 or EC50 that approximates it; ≥ and ≤ were set here for values at or beyond the usual limits of such assays. The conditions noted are these: source organism: Orthohantavirus hantanense.
The target of assay [14] is HLA-B*18:01. The assay is described as above. To be noted: source organism: Orthohantavirus hantanense.
Setting [15] is: source organism: SARS coronavirus Tor2.
Where [16] appears, read: source organism: Vaccinia virus WR.
[17] abbreviates: source organism: Dengue virus 2 Jamaica/1409/1983.
The mark [18] stands for this setting: source organism: Dengue virus 4 Philippines/H241/1956.
The mark [19] stands for this setting: source organism: Mammarenavirus machupoense.
Where [20] appears, read: source organism: Lassa virus Josiah.
The mark [21] stands for this setting: source organism: Zaire ebolavirus.
Setting [22] is: source organism: Vaccinia virus.

For FYLCFLAFLL, the pKd in assay [1] (setting [15]) was 7.12; in [2] (setting [15]), at most 4.16; in assay [3] (setting [15]), at most 4.28; in assay [4] (setting [15]), at most 4.07; in assay [5] (setting [15]), 10.17; in [6] (setting [15]) it was 7.87.
In the case of RLMSINRGF, in assay [7], the pKd was 8.52.
As to ELMYIFAAL, the pKd in [8] (setting [16]) was 7.52.
As to VWLGFIAGL, the pKd in assay [1] (setting [15]) is 7.44; in assay [2] (setting [15]), at most 4.11; in assay [3] (setting [15]), at most 4.11; in assay [4] (setting [15]), 7.92; in assay [5] (setting [15]), 5.15; in [6] (setting [15]) it was at most 4.33.
Regarding VTYNCCDDDY, the pKd is 5.35 in [1] (setting [15]); 4.73 in assay [2] (setting [15]); 7.49 in assay [3] (setting [15]); 7.10 in [4] (setting [15]); at most 4.15 in [5] (setting [15]); at most 4.15 in [6] (setting [15]).
For the sequence SKKFKFNSQ, the pKd in [8] (setting [16]) was 5.16.
Consider KIEELFYSY, for which the pKd in assay [1] (setting [15]) was 7.41; in [2] (setting [15]), at most 4.09; in assay [3] (setting [15]) it was 6.27; in [4] (setting [15]), 7.94; in [5] (setting [15]) it was at most 4.62; in assay [6] (setting [15]) it was at most 4.68.
Turning to KREDQWCGSL, the pKd in assay [8] (setting [17]) was 5.11.
Turning to NKKYRCMAL, in assay [8] (setting [16]), the pKd is 8.73.
On to RQLTKFTDF, for which the pKd in assay [8] (setting [16]) was 6.81.
Take LEDDRERLK: in assay [9] (source organism: Variola virus), the negative logarithm of the IC50 (pIC50) was 5.64.
For the sequence YLRDHFYNL, in assay [8] (setting [16]), the pKd is 8.08.
In the case of QSIFRFLNI, in [7], the pKd is 6.52.
For MMMKRLMFE, in [8] (setting [16]), the pKd was 7.12.
On the same count and under the same terms, the same measure for VVAMRHLSL: 9.01.
Take QKKKQRSGVL: the pKd in [8] (source organism: Dengue virus 1 Brazil/97-11/1997) is 5.73.
As for YTNSVTNIEL, in [10] (setting [18]), the pKd is 7.70.
Consider VDICFWSTI, for which the pKd in [1] (setting [19]) is at most 4.10; in assay [2] (setting [19]), at most 4.11; in assay [3] (setting [19]) it was 5.75; in [4] (setting [19]) it was 5.29; in assay [5] (setting [19]) it was 4.90; in [6] (setting [19]) it was 5.97.
Regarding EGKDTPGGY, the pKd in [1] (setting [20]) is at most 4.10; in [2] (setting [20]), at most 4.11; in [3] (setting [20]), at most 4.42; in [4] (setting [20]), at most 4.11; in assay [5] (setting [20]), at most 4.20; in [6] (setting [20]) it was at most 4.11.
Turning to NSKVQIGEY, the pKd is 5.64 in [1] (setting [15]); 6.63 in [2] (setting [15]); at most 4.42 in [3] (setting [15]); 7.24 in [4] (setting [15]); at most 4.11 in assay [5] (setting [15]); at most 4.46 in assay [6] (setting [15]).
Take MQESGVSKL: the pKd in assay [11] was 7.94.
ARFSGLLIV: the pIC50 in assay [12] (setting [21]) was at most 3.34; in assay [9] (setting [21]), at most 3.57.
As to SGIFITDNV, in assay [10] (setting [17]), the pKd was 7.92.
Turning to MTCIAVGGI, in assay [10] (setting [18]), the pKd was 7.13.
As to IYRGVNFAE, the pIC50 in [9] (source organism: Sudan ebolavirus) is 5.30.
As to EEAIGKVLL, the pKd in [13] was 7.86; in assay [14], 5.77.
On to DLSDQIAEL, for which the pKd in assay [10] (source organism: Homo sapiens) was 6.31.
Regarding ESASKSASVY, the pKd in assay [1] (setting [15]) is 6.43; in assay [2] (setting [15]), 6.54; in assay [3] (setting [15]), 6.52; in assay [4] (setting [15]) it was 6.18; in [5] (setting [15]), at most 4.15; in assay [6] (setting [15]) it was at most 4.15.
Turning to KFADDLNQM, the pKd in [1] (setting [15]) was 6.91; in assay [2] (setting [15]) it was at most 4.35; in assay [3] (setting [15]), at most 4.11; in assay [4] (setting [15]) it was at most 4.52; in assay [5] (setting [15]), 6.18; in assay [6] (setting [15]), 5.82.
As to MEKSSKYYI, the pIC50 in assay [12] (setting [22]) is at most 2.77; in assay [9] (setting [22]), 5.78.
For the sequence DPAKAYKDY, the pKd was 6.35 in assay [1] (setting [15]); at most 4.07 in [2] (setting [15]); at most 3.92 in assay [3] (setting [15]); 5.03 in assay [4] (setting [15]); at most 4.11 in [5] (setting [15]); at most 4.11 in [6] (setting [15]).
